We go through one molecule from PMC3713452 (2013).

The experiment has as its target T1, GST-Pdcd4 (GST fusion to full length Drosophila Pdcd4) (Drosophila, UniProt Q9VY91).
T1 chain: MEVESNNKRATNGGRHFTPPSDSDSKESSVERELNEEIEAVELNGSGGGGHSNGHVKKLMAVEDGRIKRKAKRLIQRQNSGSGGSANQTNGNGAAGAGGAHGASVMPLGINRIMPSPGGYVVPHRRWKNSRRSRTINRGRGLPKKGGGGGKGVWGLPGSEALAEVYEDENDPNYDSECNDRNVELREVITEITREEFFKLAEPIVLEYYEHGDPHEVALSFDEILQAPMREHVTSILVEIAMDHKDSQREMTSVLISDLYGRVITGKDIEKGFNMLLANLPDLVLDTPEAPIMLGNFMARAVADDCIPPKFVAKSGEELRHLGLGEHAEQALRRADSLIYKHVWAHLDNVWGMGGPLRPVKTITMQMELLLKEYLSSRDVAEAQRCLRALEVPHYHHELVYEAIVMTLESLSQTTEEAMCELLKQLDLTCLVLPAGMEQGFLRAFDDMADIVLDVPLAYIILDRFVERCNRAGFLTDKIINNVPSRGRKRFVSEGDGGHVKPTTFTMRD
Nature of the experiment: GST pull-down (affinity chromatography, immunoblot). Background: Immunoblotting shows a protein as a band on a membrane.

B1: recombinant Drosophila eIF4A (6His eIF4A) (protein)
chain: MDDRNEIPQDGPASMEPEGVIESTWHEVYDNFDDMNLREELLRGIYGYGFEKPSAIQQRAIIPCVRGRDVIAQAQSGTGKTATFSIAILQQIDTSIRECQALILAPTRELATQIQRVVMALGEYMKVHSHACIGGTNVREDARILESGCHVVVGTPGRVYDMINRKVLRTQYIKLFVLDEADEMLSRGFKDQIQDVFKMLPPDVQVILLSATMPPDVLEVSRCFMRDPVSILVKKEELTLEGIKQFYVNVKQENWKLGTLCDLYDTLSITQSVIFCNTRRKVDQLTQEMSIHNFTVSAMHGDMEQRDREVIMKQFRSGSSRVLITTDLLARGIDVQQVSLVINYDLPSNRENYIHRIGRGGRFGRKGVAINFITDDDRRILKDIEQFYHTTIEEMPANIADLI
Regarding B1, the binding result is on record as “binds”.
